Paper PMC4565669, “Insulin and mTOR Pathway Regulate HDAC3-Mediated Deacetylation and Activation of PGK1” (PLoS Biology, 2015)

What was measured:
PGK1 [1] = target: PGK1 (UniProt P00558); test: co-IP with HA beads, Flag blot; details: reference: wild type HDAC3, insulin-treated; sites S424
PGK1 [2] = target: PGK1 (UniProt P00558); test: co-IP of HA-HDAC3, PGK1 blot; details: reference: wild type HA-HDAC3; sites S424
GST-HDAC3 (recombinant) = target: T1, GST-HDAC3 (recombinant) (UniProt O15379-1 1-428); test: pull-down; in vitro pull-down with recombinant GST-HDAC3 (30 ug) and His-PGK1 (10 ug) purified from E. coli; details in S1 Text; details: both partners purified
T1 construct: source: E. coli, purified
T1 sequence (O15379 whole entry): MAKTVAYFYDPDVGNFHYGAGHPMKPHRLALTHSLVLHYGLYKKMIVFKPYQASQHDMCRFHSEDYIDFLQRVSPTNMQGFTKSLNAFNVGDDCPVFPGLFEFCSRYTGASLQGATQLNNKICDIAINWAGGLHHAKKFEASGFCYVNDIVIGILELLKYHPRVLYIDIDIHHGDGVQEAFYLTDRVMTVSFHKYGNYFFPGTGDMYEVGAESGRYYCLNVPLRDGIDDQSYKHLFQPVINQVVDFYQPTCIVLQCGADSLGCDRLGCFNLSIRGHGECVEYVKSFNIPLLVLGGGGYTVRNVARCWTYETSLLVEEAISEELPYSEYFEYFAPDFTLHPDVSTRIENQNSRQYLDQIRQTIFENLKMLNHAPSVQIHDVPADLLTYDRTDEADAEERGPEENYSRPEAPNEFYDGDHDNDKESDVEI

Molecule: HDAC3 (from UniProt O15379) S424A, insulin-treated
- binding against the reference (PGK1 [1]): weaker

Molecule: HDAC3 (from UniProt O15379) S424A
- binding against the reference (PGK1 [2]): weaker

B1: His-PGK1 (recombinant) (enzyme, human, UniProt P00558 1-417, looked up)
chain: MSLSNKLTLDKLDVKGKRVVMRVDFNVPMKNNQITNNQRIKAAVPSIKFCLDNGAKSVVLMSHLGRPDGVPMPDKYSLEPVAVELKSLLGKDVLFLKDCVGPEVEKACANPAAGSVILLENLRFHVEEEGKGKDASGNKVKAEPAKIEAFRASLSKLGDVYVNDAFGTAHRAHSSMVGVNLPQKAGGFLMKKELNYFAKALESPERPFLAILGGAKVADKIQLINNMLDKVNEMIIGGGMAFTFLKVLNNMEIGTSLFDEEGAKIVKDLMSKAEKNGVKITLPVDFVTADKFDENAKTGQATVASGIPAGWMGLDCGPESSKKYAEAVTRAKQIVWNGPVGVFEWEAFARGTKALMDEVVKATSRGCITIIGGGDTATCCAKWNTEDKVSHVSTGGGASLELLEGKVLPGVDALSNI
notes: Phosphoglycerate kinase 1 (PGK1), human, Gene ID 5230; unacetylated recombinant protein; also called His-tagged PGK1; source: E. coli, purified
- binding result (GST-HDAC3 (recombinant)): binds
